In patent US20240116990A1, “Compositions and Methods of Treatment Using CRRL 191” (Mayo Foundation for Medical Education and Research, priority 2022, published 2024):

T1: human GC-A (human), P16066
T1 chain: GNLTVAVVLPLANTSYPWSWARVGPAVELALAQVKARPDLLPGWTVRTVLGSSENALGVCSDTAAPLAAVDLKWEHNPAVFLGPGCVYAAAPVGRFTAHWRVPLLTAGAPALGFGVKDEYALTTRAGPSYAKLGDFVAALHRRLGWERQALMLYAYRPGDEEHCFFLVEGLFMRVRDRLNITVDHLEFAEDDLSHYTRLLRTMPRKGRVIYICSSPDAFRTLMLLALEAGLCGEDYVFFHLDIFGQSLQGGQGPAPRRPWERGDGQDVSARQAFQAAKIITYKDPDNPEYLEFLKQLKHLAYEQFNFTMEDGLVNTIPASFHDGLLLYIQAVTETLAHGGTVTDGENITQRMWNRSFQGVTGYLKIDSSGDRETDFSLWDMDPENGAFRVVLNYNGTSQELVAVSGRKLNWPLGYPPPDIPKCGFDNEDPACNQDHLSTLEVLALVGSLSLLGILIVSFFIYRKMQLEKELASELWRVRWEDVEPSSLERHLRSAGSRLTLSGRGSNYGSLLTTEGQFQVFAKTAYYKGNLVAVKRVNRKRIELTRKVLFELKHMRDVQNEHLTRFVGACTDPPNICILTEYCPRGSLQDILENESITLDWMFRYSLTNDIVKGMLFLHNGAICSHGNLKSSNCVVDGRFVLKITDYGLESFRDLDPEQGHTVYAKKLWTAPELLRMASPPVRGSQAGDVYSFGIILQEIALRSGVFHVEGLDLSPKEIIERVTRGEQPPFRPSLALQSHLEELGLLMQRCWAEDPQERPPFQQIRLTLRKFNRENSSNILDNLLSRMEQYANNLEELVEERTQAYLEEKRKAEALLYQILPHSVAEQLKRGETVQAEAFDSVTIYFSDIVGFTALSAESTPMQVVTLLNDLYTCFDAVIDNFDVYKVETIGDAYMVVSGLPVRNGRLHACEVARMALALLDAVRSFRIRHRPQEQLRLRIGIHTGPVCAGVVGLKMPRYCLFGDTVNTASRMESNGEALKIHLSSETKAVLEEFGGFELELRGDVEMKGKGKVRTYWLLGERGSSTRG

T2: extracellular domain of GC-A recombinant protein with a C-terminal His-tag (human), P16066
T2 chain: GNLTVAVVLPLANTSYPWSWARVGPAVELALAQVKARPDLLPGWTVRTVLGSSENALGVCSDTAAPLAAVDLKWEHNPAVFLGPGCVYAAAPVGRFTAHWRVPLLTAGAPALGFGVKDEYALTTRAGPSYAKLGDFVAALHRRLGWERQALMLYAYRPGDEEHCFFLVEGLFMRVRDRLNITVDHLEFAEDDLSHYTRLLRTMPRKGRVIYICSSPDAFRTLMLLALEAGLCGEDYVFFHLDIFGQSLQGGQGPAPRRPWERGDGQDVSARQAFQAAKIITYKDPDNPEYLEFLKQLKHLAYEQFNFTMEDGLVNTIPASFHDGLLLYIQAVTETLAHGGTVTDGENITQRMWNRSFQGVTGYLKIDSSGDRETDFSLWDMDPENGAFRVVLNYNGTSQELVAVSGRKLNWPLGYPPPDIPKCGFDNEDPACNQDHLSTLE


Assays:
[1] = system: Spontaneously Hypertensive Rats (SHR); assay: Plasma cGMP in spontaneously hypertensive rats; assay type: in vivo, rat; conditions: iv infusion, FIG. 9A
Protocol: All rat experiments are conducted following the Animal Welfare Act and the protocol is approved by the Mayo Clinic Institutional Animal Care and Use Committee (IACUC). […] Rats are included only if they are deemed healthy by the Institutional Veterinarian Department. Investigators who conduct the in vivo study are not blinded to treatments, but biochemical analysis is performed by a different investigator who is blinded to treatment.
On the day of the experiment, SHR rats are anesthetized with inactin (120 mg/kg, intraperitoneal injection, Sigma, St. Louis, MO). Rats are then kept on a heating pad at 38° C. to maintain a normal body temperature for the entire study. Vascular and bladder cannulation procedures are conducted. Briefly, a polyethylene-50 (PE-50) tube catheter is placed into one jugular vein for peptide infusion and another PE-50 tube is placed into the carotid artery for blood pressure (BP) monitoring (Sonometrics, London, Ontario, Canada) and blood sampling. After instrumentation, a 15-minute equilibrium period follows, and a 30-minute pre-infusion period is performed to collect baseline urine samples.
Four blood samples are collected to determine circulating cGMP levels: at baseline, before the end of drug infusion, at the middle of the washout clearance period, and before the end of the washout clearance period. Any blood loss in the rats is replaced with an equal volume of saline. BP is monitored and recorded every 15 minutes beginning after the initiation of peptide infusion. All collected blood are stored at −80° C. until assayed.
For the biochemical analysis, plasma cGMP levels are measured with a cGMP ELISA kit (Enzo Life Sciences, Farmingdale, NY).

[2] = molecular target: T1, human GC-A (human), P16066; assay: cell-based or functional assay
[3] = molecular target: T2, extracellular domain of GC-A …; assay: SPR (BI-4500), His-tagged GC-A extracellular domain on Ni-NTA chip, peptide as analyte, 25 C
[4] = molecular target: T2, extracellular domain of GC-A …; assay: SPR (BI-4500, 25 C); His-tagged GC-A extracellular domain immobilized on Ni-NTA chip; CRRL 191 injected at 0.125, 0.25, 0.5, 1 and 2 nM

| Molecule | plasma cGMP levels [1] | EC50 of cGMP production, HEK293 GC-A cells, 10 min stimulation [2] | intracellular cGMP (Mean) at 10^-6 M peptide [2] | intracellular cGMP (Mean) at 10^-7 M peptide [2] | intracellular cGMP (Mean) at 10^-8 M peptide [2] | intracellular cGMP (Mean) at 10^-9 M peptide [2] | intracellular cGMP (Mean) at 10^-10 M peptide [2] | intracellular cGMP (Mean) at 10^-12 M peptide [2] | intracellular cGMP (Mean) at 10^-14 M peptide [2] | Kd [3] | Kd [4] |
| --- | --- | --- | --- | --- | --- | --- | --- | --- | --- | --- | --- |
| CC[C@H](C)[C@@H]1NC(=O)[C@H](CCCNC(=N)N)NC(=O)[C@H](CC(=O)O)NC(=O)[C@H](CCSC)NC(=O)[C@H](CCCNC(=N)N)NC(=O)CNC(=O)CNC(=O)[C@H](Cc2ccccc2)NC(=O)[C@@H](NC(=O)[C@H](CO)NC(=O)[C@H](CO)NC(=O)[C@H](CCCNC(=N)N)NC(=O)[C@H](CCCNC(=N)N)NC(=O)[C@H](CC(C)C)NC(=O)[C@@H](N)CO)CSSC[C@@H](C(=O)N[C@@H](CC(N)=O)C(=O)N[C@@H](CO)C(=O)N[C@@H](Cc2ccccc2)C(=O)N[C@@H](CCCNC(=N)N)C(=O)N[C@@H](Cc2ccc(O)cc2)C(=O)O)NC(=O)CNC(=O)[C@H](CC(C)C)NC(=O)CNC(=O)[C@H](CO)NC(=O)[C@H](CCC(N)=O)NC(=O)[C@H](C)NC(=O)CNC1=O [ANP, reference compound] | increase |  |  |  |  |  |  |  |  |  |  |
| RALLTAPRSLRRSSCFGHKIDRINHVSNLGCNSFRYRITAREDKQGWA (modifications not checked) [CRRL 191] |  | 0.48 nM | 135 | 141 | 152 | 89.9 | 35.6 | 2.57 | 3.07 | 0.128 nM | 0.128 nM |
